Data taken from paper PMC6154995, “Heme-dependent Inactivation of 5-Aminolevulinate Synthase from Caulobacter crescentus” (Scientific Reports, 2018).

Test system: CC(C)(COP(=O)(O)OP(=O)(O)OC[C@H]1O[C@@H](n2cnc3c(N)ncnc32)[C@H](O)[C@@H]1OP(=O)(O)O)[C@@H](O)C(=O)NCCC(=O)NCCSC(=O)CCC(=O)O
Test: purified protein
Conditions: PLP

## 5-aminolevulinate synthase (cALAS) (Caulobacter vibrioides CB15)
  Km: 2.42 ± 0.32 µM
